We go through 41 sequences from the nanobody polyreactivity screen of Harvey et al. (2022).

This data set can be described thus: yeast display, Sf9 membrane polyspecificity reagent, FACS + sequencing; frameworks hold sequencing errors. Put shortly:
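Galactose induction of a Saccharomyces cerevisiae BJ5465 synthetic nanobody display library ran 36–48 hours. The cells were then stained for 1 hour at 4 °C with 10% biotinylated, detergent-solubilized Sf9 membrane reagent, pulled down on streptavidin microbeads and FACS-sorted into low and high (top ~1%) gates on expression and reagent-binding fluorescence. Labels for polyreactivity follow the gate of origin.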
Turning to “QVQLVESGGGLVQAGGSLRLSCAASGSTFRLYAMGWYRQAPGKERELVAAISSRGGSTYYADSVKGRFTISRDNAKNTVYLQMNSLKPEDTAVYYCATDYITPSSEGDYWGQGTQVTVTS”, the “polyreactivity (PSR sort gate)” value is “high polyreactivity”.

Consider “QVQLVESGGGLVQAGGSLRLSCAASGSTFRNAMGWYRQAPGKERELVAAISYSGGRTYYADSVKGRFTISRDNAKNTVYLQMNSLKPEDTAVYYCASPGVSWSTRSYYYWGQGTQVTVSS”, for which the “polyreactivity (PSR sort gate)” value is “high polyreactivity”.

In the case of “QVQLVESGGGLVQAGGSLRLSCAASGSTFRNYAMGWYRQAPGKERELVAAITKRGGTTYYADSVKGRFTISRDNAKNTCYLQMNSLKPEDTAVYYCATGYNSSPFDYWGQGTQVTVSS”, the “polyreactivity (PSR sort gate)” value is on record as “high polyreactivity”.

In the case of “QVQLVESGGGLVQAGGSLRLSCAASGSTFRNYAMGWYRQAPGKERELVAAITKRGGTTYYADSVKGRFTISRDNAKNTVYLQMNSLKPEDTAVYYCATRQLSKVKDMDYWGQGTQVTVSS”, the “polyreactivity (PSR sort gate)” value was “high polyreactivity”.

For “QVQLVESGGGLVQAGGSLRLSCAASGSTFRPNAMGWYRQAPGTERELVAAITSGGSTYYADSVKGRFTISRDNAKNTVYLQMNRLKPEDTAVYYFNKDKFWSYPVQVNLDYWGQGTQVTVSS”, the “polyreactivity (PSR sort gate)” value was “low polyreactivity”.

Take “QVQLVESGGGLVQAGGSLRLSCAASGSTFRPYAKGWYRQAPGKERELVAAISNGGNTNYADSVKGRFSISRDNAKNTVYLQMNSLIPEDTAFYYCAKTFRGQPYLRYRYYYWGQGTQVTVSS”: the “polyreactivity (PSR sort gate)” value was “high polyreactivity”.

For “QVQLVESGGGLVQAGGSLRLSCAASGSTFRPYAMGWYRQAPGKERELVAAITFNGDTYADSVKGRFTISRDNAKNTVYLQMNSLKPEDTAVYYCNAESVSSPPYYDYWGQGTQVTVSS”, the “polyreactivity (PSR sort gate)” value was “high polyreactivity”.

Regarding “QVQLVESGGGLVQAGGSLRLSCAASGSTFRQYAMGWYRQAPGKERELVAAINWSGSSTYYADSVKGRFTISRDNAKNTVYLQMNSLKPDDTAVYYCAAVVQYWWWKGRGYWGQGTQVTVSS”, the “polyreactivity (PSR sort gate)” value is given as “high polyreactivity”.

Consider “QVQLVESGGGLVQAGGSLRLSCAASGSTFRRNAMGWYRKAPGKERELVAAISSTGGSTRYADSVKGRFTISRDNAKNTVYLQMNSLKPEDTAVYYCAARFSASGSFYYWGQGTQVTVSS”, for which the “polyreactivity (PSR sort gate)” value is listed as “high polyreactivity”.

Turning to “QVQLVESGGGLVQAGGSLRLSCAASGSTFRRNAMGWYRQAPGKERELVAAISRGGNTKYADSVKGGFTISRDNAKNTVYLQKNSLKPEDTAVYYCATYYFSSSHLYGYWGQGTQVTVSS”, the “polyreactivity (PSR sort gate)” value is “high polyreactivity”.

Regarding “QVQLVESGGGLVQAGGSLRLSCAASGSTFRRNAMGWYRQAPGKERELVAAITRRGTSTYYADSVKGRFTISRDNAKNTVYLQMNSLKPEDTAVYYCNAPRPYQDGKFGYWGQGTQVTVSS”, the “polyreactivity (PSR sort gate)” value is “high polyreactivity”.

Consider “QVQLVESGGGLVQAGGSLRLSCAASGSTFRRYAMGWYRQAPGKERELVAAISSSGDSTYYADSVKGRFTISRDNAKNTVYLQMNSLKPEDTAVYYCATRLRQVYRSQSSGYDYWGQGTQVTVSS”, for which the “polyreactivity (PSR sort gate)” value is reported as “low polyreactivity”.

In the case of “QVQLVESGGGLVQAGGSLRLSCAASGSTFRSYAMGWNRQAPGKERELVAAISGRGGNTYYADSVKGRFTISRDNAKNTVYLLMNSLKPEDTAVYYCARKTVYYGSDYWGQGTQVTVSS”, the “polyreactivity (PSR sort gate)” value is “high polyreactivity”.

In the case of “QVQLVESGGGLVQAGGSLRLSCAASGSTFRSYAMGWYIQAPGKERELVARISYRTGSTYYADSVKGRFTISRDNAKNTVYLQMNSLKPEDTAVYYCATRGSYVGGLYDYWGQGTQVTVSS”, the “polyreactivity (PSR sort gate)” value was “high polyreactivity”.

For the sequence “QVQLVESGGGLVQAGGSLRLSCAASGSTFRSYAMGWYRQAPGKERELVARISYRTGSTYYADSVKGRFTISRDNAKNTVYLQMNSLKPEDTAVYYCATRGSYVGGLYDYWGQGTQVTVSS”, the “polyreactivity (PSR sort gate)” value was “high polyreactivity”.

Consider “QVQLVESGGGLVQAGGSLRLSCAASGSTFRTNAMGWYRQAPGKERELVADISKRGGNTYYADSVKGRFTISRDNAKNTVYLQMNCLKPEDTALYDCAAYRVYGYGGGYDYYYWVQGTQVTVSS”, for which the “polyreactivity (PSR sort gate)” value is “high polyreactivity”.

Take “QVQLVESGGGLVQAGGSLRLSCAASGSTFRVYAMGWYRQATVKERELVAAISGSGGSTYYADSVKGRFTISRYNAKNSVYLQMNSLKPEDTAVYYCAARSWYTEYYWGQGTQVSVSS”: the “polyreactivity (PSR sort gate)” value is reported as “high polyreactivity”.

For the sequence “QVQLVESGGGLVQAGGSLRLSCAASGSTFRVYVMGWYRQAPGKERELVAAISQRGGSTYYADSVKGRFTISRDNAKNTVYLQMNSLKPEDTAVYYCAADQPGARTWSNRESDYWGQGTQVTVSS”, the “polyreactivity (PSR sort gate)” value was “high polyreactivity”.

As for “QVQLVESGGGLVQAGGSLRLSCAASGSTFRWNAMGWYRQAPGKERELVAAISWSGGTTYYADSVKGRFTISRDNAKNTVYLQMNSLKPEDTAVYYCAARTLWQGYWGQGTQVTVSS”, the “polyreactivity (PSR sort gate)” value is listed as “high polyreactivity”.

Regarding “QVQLVESGGGLVQAGGSLRLSCAASGSTFRWNAMGWYRQAPGKERELVAAITWSGGSTYYADSVKGRFTISRDNAKNTVYLQMNSLKPEDTAVYYCNAGGLFQYDSWGQGTQVTVSS”, the “polyreactivity (PSR sort gate)” value was “low polyreactivity”.

With “QVQLVESGGGLVQAGGSLRLSCAASGSTFRWNAMGWYRQAPGKERELVATITWGGGSTYYADSVKGRFTISRDNAKNTVYLQMNSLKPEDTAVYYCARRKRARYSYYQYNYWGQGTQVTVSS”, the “polyreactivity (PSR sort gate)” value is on record as “high polyreactivity”.

Turning to “QVQLVESGGGLVQAGGSLRLSCAASGSTFRYNAMGWYIQAPGKERELVAAITSTGDSTYYADSVKGRFTISRDNAKNTVYLQMNSLKPEYTAVYYCAARSYASPGWRYEYWGQGTQVTVSS”, the “polyreactivity (PSR sort gate)” value is “low polyreactivity”.

For the sequence “QVQLVESGGGLVQAGGSLRLSCAASGSTFRYNAMGWYRQAPGKERELVAAITSTGDSTYYADSVKGRFTISRDNAKNTVYLQMNSLKPEVTAVYYCAARSYASPGWRYEFWGQGTQVTVSS”, the “polyreactivity (PSR sort gate)” value is reported as “low polyreactivity”.

For the sequence “QVQLVESGGGLVQAGGSLRLSCAASGSTFRYNAMGWYRQAPGKERELVASISGSGGGTYYADSVKGRFTISRDNAKNTVYLQMNSLKPEDTAVYYCAADAGAFYFGGDYWGQGTQVTVSS”, the “polyreactivity (PSR sort gate)” value was “low polyreactivity”.

Turning to “QVQLVESGGGLVQAGGSLRLSCAASGSTFRYNTMGWYRQAPGKERELVAAISTSGGTTYYADSVKGRFTISRDNAKNTVYLQMNSLKPEDTAVYYCAARPFPRRWYGAEDYYWGQGTQVTVSS”, the “polyreactivity (PSR sort gate)” value is recorded as “high polyreactivity”.

Consider “QVQLVESGGGLVQAGGSLRLSCAASGSTFRYYAMGRYRQAPGKERELVAVISTSGNTYYADSVKGRFTISRDNAKNTVYLQMNSLKPEDTAGYYCAAGGVGGQISQEYDYWGQGTQVTVSS”, for which the “polyreactivity (PSR sort gate)” value is listed as “low polyreactivity”.

As to “QVQLVESGGGLVQAGGSLRLSCAASGSTFRYYAMGWYREAPGKEREFVAAISLRAGSTYYADSVKGRFTISRDNAKNTVYLQMNSLKPEDTAVYYCAARRASYGTRRYDYWGQGTQVTVSS”, the “polyreactivity (PSR sort gate)” value is listed as “high polyreactivity”.

On to “QVQLVESGGGLVQAGGSLRLSCAASGSTFRYYAMGWYRQAPGKERELVAAINYGGGRTYYADSVKGRFTISRDNAKNTVYLQMNSLKPEDTAVYYCATGYYYYRFYTYGYWGQGTQVTVSS”, for which the “polyreactivity (PSR sort gate)” value is recorded as “high polyreactivity”.

Consider “QVQLVESGGGLVQAGGSLRLSCAASGSTFRYYAMGWYRQAPGKERELVAAISTGGTTYYADSVKGRFTISRENAKNTVYLQMNSLKPEDTAVYYCNTVRLFDYGYWGQGTQVTVSS”, for which the “polyreactivity (PSR sort gate)” value is “low polyreactivity”.

Consider “QVQLVESGGGLVQAGGSLRLSCAASGSTFRYYAMGWYRQAPGKERELVAAITRSGGSTSYADSVKGRFTISRDNAKNTVYLQMNSLKPEDTAVYYCAARFYRPYYARQGYNYWGQGTQVTVSS”, for which the “polyreactivity (PSR sort gate)” value is “high polyreactivity”.

As for “QVQLVESGGGLVQAGGSLRLSCAASGSTFRYYAMGWYRQAPGKERELVAGISSSGGSTYYADSVKGRFTISRDNAKNTVYLQMNSLNPEDTAVYYCIAARGTSRSWAVFADYDYWGQGTQVTVSS”, the “polyreactivity (PSR sort gate)” value is on record as “high polyreactivity”.

“QVQLVESGGGLVQAGGSLRLSCAASGSTFRYYAMGWYRQAPGKERELVASISSGGSTNYADSVKGRFTISRDNAKNTVYLQMNSLKPGDTAVYYCNADSWTVNRRYYYYRYEYWGQGTQVTVSS”: the “polyreactivity (PSR sort gate)” value is reported as “low polyreactivity”.

Consider “QVQLVESGGGLVQAGGSLRLSCAASGSTFRYYAMGWYRQAPGKERELVATITGSGGSTYYADSVKGRFTISRDNAKNTVYLQMNSLKPEDTAVYYCAAYYSGGYDYWGQGTQVTVSS”, for which the “polyreactivity (PSR sort gate)” value is given as “high polyreactivity”.

“QVQLVESGGGLVQAGGSLRLSCAASGSTFRYYGMGWYRQAPGKERELVAAITWSSGSTFYADSVKGRFTISRDNAKNTVYLQMNSLKPEDTAVYYCAKTWWTRLKTKSLHFGYWGQGTQVTVSS”: the “polyreactivity (PSR sort gate)” value is “high polyreactivity”.

With “QVQLVESGGGLVQAGGSLRLSCAASGSTFRYYTMGWYRQAPGKERELVAAITRRSASTYYADSVKGRFTISRDNAKNTVYLQMNSLKPEDTAVYYCAVRTNGPFEYWGQGTQVTVSS”, the “polyreactivity (PSR sort gate)” value was “high polyreactivity”.

As to “QVQLVESGGGLVQAGGSLRLSCAASGSTFRYYTMGWYRQAPGKERELVAAITWSGGSTYYADSVKGRFTISRDNAKNTVNLQMNSLKPEDTEVYYCNKEDVGSSESDYWGQGTQVTVSS”, the “polyreactivity (PSR sort gate)” value is “high polyreactivity”.

“QVQLVESGGGLVQAGGSLRLSCAASGSTFRYYTMGWYRQAPGKERELVAAITWSGGSTYYADSVKGRFTISRDNAKNTVYLQMNSLKPEDTAVYYCNARSLQWTPRAYYYWGQGTQVTVSS”: the “polyreactivity (PSR sort gate)” value is listed as “high polyreactivity”.

Take “QVQLVESGGGLVQAGGSLRLSCAASGSTFRYYTMGWYRQAPGKERELVARISWSGGSTYYADSVKGRFTISRDNAKNTVYLQMNSLKPEDTAVYYCNAVLFYFQTRDYWGQGTQVTVSS”: the “polyreactivity (PSR sort gate)” value is “high polyreactivity”.

Turning to “QVQLVESGGGLVQAGGSLRLSCAASGSTFSANAMGWYRQAPGKERELLAAISSGDITYYADSVKGRFTISRDNAKNTVYLQMNSLKPEDTAVYYCAKYTRPTGNVDDGFEYWGQGTQVTVSS”, the “polyreactivity (PSR sort gate)” value is “low polyreactivity”.

On to “QVQLVESGGGLVQAGGSLRLSCAASGSTFSANAMGWYRQAPGKERELVAAISRRGGSTNYADSVKGRFTISRDNAKNTVYLQMNSLKPEDTAVYYCAALYVPRSPFSYDYWGQGTQVTVSS”, for which the “polyreactivity (PSR sort gate)” value is “high polyreactivity”.

With “QVQLVESGGGLVQAGGSLRLSCAASGSTFSANAMGWYRQAPGKERELVAAITYRGGNTYYADSVKGRFTISRDNAKNTVYLQMNSLKPEDTAVYYCNRDLRVRYRRLKYGYWGQGTQVTVSS”, the “polyreactivity (PSR sort gate)” value is reported as “low polyreactivity”.
